Source: patent US20260250363A1
Like-named read-outs stand apart in the source and are kept apart here.

Experiments:
[1] = molecular target: SARS-CoV-2 +E484K B.1.1.7 Spike Protein (R&D, Cat. #10824-CV) (SARS-CoV-2) (UniProt P0DTC2); assay: direct ELISA on coated spike
[2] = molecular target: SARS-CoV-2 +E484K B.1.1.7 Spike Protein (R&D, Cat. #10824-CV) (SARS-CoV-2) (UniProt P0DTC2); assay: BLI (ForteBio), mAb on AHC sensor, spike in solution
[3] = molecular target: SARS-CoV-2 +E484K B.1.1.7 Spike Protein (R&D, Cat. #10824-CV) (SARS-CoV-2) (UniProt P0DTC2); assay: competition ELISA: blocks biotin-ACE2 binding to coated spike
[4] = molecular target: SARS-CoV-2 +E484K B.1.1.7 Spike Protein (R&D, Cat. #10824-CV) (SARS-CoV-2) (UniProt P0DTC2); assay: as above; remark: listed apart in the source

| Substance | EC50 [1] [nM] | Kd [2] [nM] | IC50 [3] [nM] | IC50 [4] [nM] |
| --- | --- | --- | --- | --- |
| Casirivimab (antibody) | 0.0584 | 3.4 | 3.13 | 3.3 |
| Imdevimab (antibody) | 0.0505 | 0.831 |  |  |
